{"source": "paper PMC8822709", "about": "(Journal of Biomedical Science, 2022)", "key": {"[1]": {"target": "T1, ENO1 (Alpha-enolase), endogenous in RD cells (Homo sapiens (RD cells), UniProt P06733)", "T1 construct": "also called α-enolase", "T1 sequence (P06733 whole entry)": "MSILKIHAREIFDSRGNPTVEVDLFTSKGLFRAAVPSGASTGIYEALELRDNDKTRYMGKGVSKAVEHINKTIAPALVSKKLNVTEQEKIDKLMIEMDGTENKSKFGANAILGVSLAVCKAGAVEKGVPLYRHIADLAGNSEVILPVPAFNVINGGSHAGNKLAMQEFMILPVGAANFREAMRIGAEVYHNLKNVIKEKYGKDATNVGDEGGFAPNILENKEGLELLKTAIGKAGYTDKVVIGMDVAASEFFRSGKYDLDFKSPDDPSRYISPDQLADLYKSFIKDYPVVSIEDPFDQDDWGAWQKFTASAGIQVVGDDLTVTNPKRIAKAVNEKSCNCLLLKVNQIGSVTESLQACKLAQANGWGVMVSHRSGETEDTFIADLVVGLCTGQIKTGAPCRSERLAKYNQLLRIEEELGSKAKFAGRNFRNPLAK", "assay": "affinity purification with mass spectrometry", "settings": "one partner purified"}, "PEG-precipitated EV-A71": {"target": "T2, PEG-precipitated EV-A71 (Enterovirus A71, stock strain …, UniProt Q9DY01)", "T2 construct": "also called EV-A71 protein; EV-A71 capsid proteins; source: PEG-precipitated EV-A71 (virus propagated in RD cells)", "assay": "ELISA", "settings": "both partners purified"}, "[2]": {"target": "T3, ENO1 recombinant protein (α-enolase) (Homo sapiens, UniProt P06733)", "T3 construct": "also called hENO1; rhENO1; source: recombinant protein", "T3 sequence (P06733 whole entry)": "as above", "assay": "ELISA; indirect ELISA; recombinant protein (5 μg/mL) coated in carbonate-bicarbonate pH 9.6, 07-IgG1 diluted and added at 37 °C for 1 h, HRP goat anti-human IgG, OD 450 nm", "settings": "both partners purified"}}}
{"binder": "07-human IgG1 antibody (antibody, V domains shown, also called 07-IgG1; clone 07 recombinant antibody; source: ExpiCHO, co-transfected (pcDNA3.4 heavy and light chain), purified by protein A resin) VH: EVQLLESGAVVKKPGESLKISCTGSGYVFRDYWVGWVRQMPGKGLEWLGMIYPDEFDIRYSPSFQGQVTISADKSIDTAYLQLSSLEASDTGIYYCARHGNTGCGGTMCYKSYLYYGMDVWGQGTTVTVS VL: ELVLTQSPSVSVSPGQTASITCSGDKLGDKYACWYQQKPGQSPVLVIYQDNKRPSGIPERFSGSNSGNTATLTISGTRAMDEADYYCQAWDSSTCYVFGTGTKLTVL", "values": [{"measurement": "binding result", "setting": "[1]", "result": "binds"}, {"measurement": "binding result", "setting": "PEG-precipitated EV-A71", "result": "no binding"}, {"measurement": "binding result", "setting": "[2]", "result": "binds"}]}
